We go through two molecules from patent publication US20240400717A1, “Antibody Binding to CHI3L1 for Treating Cancer” (National Cheng Kung University, priority 2021, published 2024).

For one test, the system named is HCT116 and A549 cells. Kind of test: Immunoblot of rCHI3L1-induced AKT and ERK phosphorylation, HCT116 and A549. Format: cell-based, human. The conditions noted are these: HCT116 and A549, time course. As for the experimental part: (§1) The involvement of CHI3L1 in intracellular signaling pathways has been reported. For example, CHI3L1 binding to CD44 activates protein kinase B (AKT) and extracellular signal-regulated kinase (ERK) signaling to promote cancer progression (Chen, Jiang et al. 2021). Thus, we tested whether mAb clones R4-4, R4-54, 293R3-2, and 293R3-4 could attenuate AKT and ERK phosphorylation in human pancreatic (PANC1), colorectal (HCT116), and lung (A549) cancer cell lines. PANC1 cells were treated with rCHI3L1 (100 ng/ml) only or rCHI3L1 with different dose of mAbs as indicated for 20 minutes.
In general terms: In western blotting, separated proteins are transferred to a membrane and probed.

The target of test [1] is CHI3L1-receptor(s) interaction on HCT116, SW480, SW620, PANC1 and MiaPaCa-2 (Homo sapiens, UniProt P36222). Kind of test: Flow cytometry blockage of rCHI3L1-receptor(s) interaction, colorectal and pancreatic cancer cell lines. Format: cell-based. The conditions noted are these: HCT116, SW480, SW620, PANC1, MiaPaCa-2, flow cytometry. As for the experimental part: CHI3L1 have been reported to interact with several receptors on cancer cells, and trigger downstream signaling for cancer cell growth, proliferation and anti-apoptosis (Kamba et al. 2013; Lee et al. 2016). […] His-tagged rCHI3L1 was added for CHI3L1-receptor(s) interaction. Anti-His antibody AHAb with fluorescent F recognized CHI3L1-receptor(s) R complex for detection (left, FIG. 4A). Once fully human mAbs (nCHI3L1 Ab) blocked the CHI3L1-receptor(s) interaction, the fluorescent F signals were decreased (right, FIG. 4A) and cell signaling CS was blockade.
(§2) Four selected clones of mAbs including R4-4, R4-54, 293R3-2, and 293R3-4 were further tested for blocking effect on human colorectal (HCT116, SW480, and SW620) and pancreatic cancer cell lines (PANC1 and MiaPaCa-2). […] P values were determined by one-way ANOVA. * P<0.05, ** P<0.01, *** P<0.001, **** P<0.0001. For binding specificity examination, we further coated different concentration of recombinant CHI3L1 protein, and two other major proteins in chitinase family including human chitotriosidase-1 (CHIT1) and CHI3L2 from 2.5 μg/ml to 0 μg/ml, on 96-well plate.
On the technique in general: In flow cytometry, cells or beads pass a laser one at a time.

In another test the test system is PANC1 cells. The experiment in a line: Immunoblot of rCHI3L1-induced AKT and ERK phosphorylation, PANC1. Format: cell-based, human. The conditions noted are these: PANC1, rCHI3L1 100 ng/ml, 20 minutes, different dose of mAbs. As for the experimental part: as §1
For test [2], the system named is MiaPaCa-2, SW480 and A549 cells. The experiment in a line: Wound healing assay with rCHI3L1. The format is cell-based, human. The conditions noted are these: MiaPaCa-2, SW480, A549; 16 hours. As for the experimental part:
Since AKT regulates cell migration, we further performed wound healing assay to examine the anti-migratory effect of mAbs on pancreatic (MiaPaCa-2), colorectal (SW480), and lung (A549) cells. We observed that after 16 hours, the wound closure area was increased compared to that in control groups upon rCHI3L1 treatment. […] Taken together, our fully human monoclonal CHI3L1 neutralizing antibody clones R4-4, R4-54, 293R3-2, and 293R3-4 blocked the CHI3L1 induced signaling and cell behaviors of tumor cells. The data was presented as mean±S.D. (n=3 per group). P values were determined by one-way ANOVA. * P<0.05, ** P<0.01, *** P<0.001, **** P<0.0001.

The target in test [3] is recombinant CHI3L1 protein (Homo sapiens, UniProt P36222). The experiment in a line: ELISA binding specificity, CHI3L1. The conditions noted are these: mAbs 1 μg/ml; coated protein 2.5 μg/ml to 0 μg/ml. As for the experimental part:
as §2
For orientation: In an ELISA, binding on a coated surface is turned into a signal by an enzyme label.

The subject of the next test is MiaPaCa cells. Kind of test: MiaPaCa orthotopic NOD-SCID mice model. The conditions noted are these: for level of CHI3L1 in intratumoral region and plasma: end of experiment; for infiltrated macrophages in tumor sections (F4/80+, CD206+): immunofluorescence, 5 mg/kg i.v.; for angiogenesis indicated by CD31 expression / tumor size: mAb 5 mg/kg i.v., gemcitabine 50 mg/kg i.p.; for tumor size: Day 7, 14, 21, 28, sacrificed day 34.

In a further test the target is T1, hCHI3L1/flag-His (Homo sapiens, UniProt P36222).
T1 construct: human CHI3L1 extracellular domain fused with flag and His tag
Kind of test: In tandem epitope binning on Octet Red96. The format is binding. The conditions noted are these: for epitope cluster: among four anti-CHI3L1 mAbs; for competitive binding class, CHI3L1 293R3-2: paired with CHI3L1 293R3-2; for Epitope Binning Heat Map value, CHI3L1 293R3-2: paired with CHI3L1 293R3-2, 100 nM each; for competitive binding class, CHI3L1 293R3-4: paired with CHI3L1 293R3-4; for Epitope Binning Heat Map value, CHI3L1 293R3-4: paired with CHI3L1 293R3-4, 100 nM each; for competitive binding class, CHI3L1 R4-4: paired with CHI3L1 R4-4; for Epitope Binning Heat Map value, CHI3L1 R4-4: paired with CHI3L1 R4-4, 100 nM each; for competitive binding class, CHI3L1 R4-54: paired with CHI3L1 R4-54; for Epitope Binning Heat Map value, CHI3L1 R4-54: paired with CHI3L1 R4-54, 100 nM each. On the procedure:
In order to know the epitopic coverage for those four antibodies to increase the success of therapeutic CHI3L1 antibody development, epitope binning is used to characterize the binding site of mAbs to the corresponding antigen and summarized in the Table 4. In epitope binning, mAbs specific to the same target protein are tested pairwise against all mAbs in a set to assess whether they block one another's binding to a specific site of the antigen or not. The mAbs that block binding to the same epitope are “binned” together. mAbs within the same bin often function similarly, so epitope bins can narrow down the choices to fewer candidates for investigators to choose from. The in tandem epitope binning assay conducted on Octet Red96 comprised a five-step binding cycle; 1) a buffer baseline was established for 30 sec, 2) 100 nM hCHI3L1/flag-His was captured for 5 min, 3) 100 nM mAb array was loaded to saturate the captured antigen for 10 min, 4) 100 nM of the test mAb was bound for 5 min, and 5) the capture surfaces were regenerated for 30 sec. Anti-His surfaces were regenerated with 10 mM glycine pH 1.7. Raw data was processed using ForteBio's Data Analysis HT Software 11.1 and the antibody pairs were assessed for competitive binding. Additional binding by the second antibody indicates an unoccupied epitope (non-competitor, marked as *c in Table 4), while no binding indicates epitope blocking (competitor, marked as *b in Table 4) and self-competing antibodies were marked as *a in Table 4. Among four anti-CHI3L1 mAbs, there are two epitope clusters.

T1 sequence (P36222 22-383): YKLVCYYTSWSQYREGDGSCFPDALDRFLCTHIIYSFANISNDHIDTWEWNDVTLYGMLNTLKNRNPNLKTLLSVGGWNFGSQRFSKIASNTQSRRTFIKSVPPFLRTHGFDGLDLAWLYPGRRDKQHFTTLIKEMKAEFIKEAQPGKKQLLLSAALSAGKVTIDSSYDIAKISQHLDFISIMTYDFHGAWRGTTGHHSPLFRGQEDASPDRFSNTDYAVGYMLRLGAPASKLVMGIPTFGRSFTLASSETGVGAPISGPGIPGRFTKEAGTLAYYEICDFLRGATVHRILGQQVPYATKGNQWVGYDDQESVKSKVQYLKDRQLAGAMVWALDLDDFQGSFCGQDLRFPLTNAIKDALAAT
Chain of recombinant CHI3L1 protein (P36222 22-383): as above
Chain of CHI3L1-receptor(s) interaction on HCT116, SW480, SW620, PANC1 and MiaPaCa-2 (P36222 22-383): as above
Description for MiaPaCa cells: Specifically, experimental design of tumor growth inhibition in vivo. MiaPaCa cells (5×10^6) were injected into pancreas of NOD-SCID mice at Day 0. […] Mice were sacrificed on day 34. […] Since fibrosis and angiogenesis are two major issues during tumor progression, we compared the fibrosis and angiogenesis level within each groups.

B1: R4-54: fully human anti-CHI3L1 IgG1 mAb, Table 1 No. 34; heavy chain SEQ ID NO: 33, light chain SEQ ID NO: 34 (antibody, listed as Homo sapiens)
VH: QVQLVESGGGVVQPGRSLRLSCAASGFTFSSYGMHWVRQAPGKGLEWVAVISYDGSDKDYADSVKGRFTISRDNSKNTLFLQMNSLRAEDTAVYYCARDDYDSTYYFDNWGQGTTVTVSS
light: SYELTQPPSVSVSPGQTASITCSGDILADQYASWYQQKPGQSPVLVIYHDTKRPSGVPERFSGSTSGNTATLTISGTQAMDEAAYYCQAWDINTAWVFGGGTQLTVLGQPKAAPSVTLFPPSSEELQANKATLVCLISDFYPGAVTVAWKADSSPVKAGVETTTPSKQSNNKYAASSYLSLTPEQWKSHRSYSCQVTHEGSTVEKTVAPTECS
On to B1, for which the “p-AKT and p-ERK levels induced by rCHI3L1” value with HCT116 and A549 cells is “Inhibition of p-AKT and p-ERK”. The “rCHI3L1 binding to cells” value in test [1] was “significantly reduced”. Further, the “p-AKT and p-ERK levels induced by rCHI3L1” value with PANC1 cells is “inhibited p-AKT and p-ERK levels induced by rCHI3L1 in a dose dependent manner”. Further, in test [2], the “cell migration ability induced by rCHI3L1 (wound closure area)” value is reported as “significantly reduced cell migration ability”. The “binding specificity: recognition of CHI3L1” value in test [3] was “specifically recognized CHI3L1”. Further, the “fibrosis indicated by α-SMA” value in the test on MiaPaCa cells (comparing to IgG control and gemcitabine groups) is given as “obviously decrease”. In addition, in the test on MiaPaCa cells, the “level of CHI3L1 in intratumoral region and plasma” value is reported as “lower than IgG control group”; the “infiltrated macrophages in tumor sections (F4/80+, CD206+)” value is given as “more macrophages other than M2 phenotype”; the “angiogenesis indicated by CD31 expression” value is given as “decreased in every treatment groups”; the tumor size entry is “smaller than IgG control group”. Besides, in the test with hCHI3L1/flag-His, the epitope cluster entry is “unidirectional blocking results”; the “competitive binding class, CHI3L1 293R3-2” value is “*^b”; the “Epitope Binning Heat Map value, CHI3L1 293R3-2” value is on record as 0.1002; the “competitive binding class, CHI3L1 293R3-4” value is listed as “*^b”. Besides, in the test with hCHI3L1/flag-His, the “Epitope Binning Heat Map value, CHI3L1 293R3-4” value is listed as 0.1425; the “competitive binding class, CHI3L1 R4-4” value is “*^c”; the “Epitope Binning Heat Map value, CHI3L1 R4-4” value was found to be 1.1166; the “competitive binding class, CHI3L1 R4-54” value is recorded as “*^a”. Moreover, the “Epitope Binning Heat Map value, CHI3L1 R4-54” value in the test with hCHI3L1/flag-His was 0.2160.

B2: 293R3-4: fully human anti-CHI3L1 IgG1 mAb, Table 1 No. 4; heavy chain SEQ ID NO: 73, light chain SEQ ID NO: 74 (antibody, listed as Homo sapiens)
VH: EVQLVQSGAEVKKPGATVKISCKVSGYSFTDYYIHWVQQAPGKGLEWMGFVDPENGETIYAEKFQGRVTITADTSTDTAYMELSSLRSDDTAVYYCATDRDYDDSSGNAFDIWGQGTMVTVSS
light: SYELTQPPSVSVSTGQTATITCSGDILGDEYAFWYQQKAGQSPVLVIYLDTRRPSGIPERFSGSNSGDTATLTISETQPVDEAVYFCQGWDSSTALYVFGTGTKVTVLGQPKANPTVTLFPPSSEELQANKATLVCLISDFYPGAVTVAWKADGSPVKAGVETTKPSKQSNNKYAASSYLSLTPEQWKSHRSYSCQVTHEGSTVEKTVAPTECS
As to B2, the “p-AKT and p-ERK levels induced by rCHI3L1” value with HCT116 and A549 cells is “Inhibition of p-AKT and p-ERK”. For the same molecule, the “rCHI3L1 binding to cells” value in test [1] is “significantly reduced”. The “p-AKT and p-ERK levels induced by rCHI3L1” value in the test with PANC1 cells is “inhibited p-AKT and p-ERK levels induced by rCHI3L1 in a dose dependent manner”. In addition, in test [2], the “cell migration ability induced by rCHI3L1 (wound closure area)” value is “significantly reduced cell migration ability”. In addition, the “binding specificity: recognition of CHI3L1” value in test [3] is “specifically recognized CHI3L1”. Also, in the test on MiaPaCa cells, the “level of CHI3L1 in intratumoral region and plasma” value is “lower than IgG control group”; the “infiltrated macrophages in tumor sections (F4/80+, CD206+)” value is given as “more macrophages other than M2 phenotype”; the “angiogenesis indicated by CD31 expression” value was “decreased in every treatment groups”; the tumor size entry is “smaller than IgG control group”. In the test with hCHI3L1/flag-His, the epitope cluster result is recorded as “unidirectional blocking results”; the “competitive binding class, CHI3L1 293R3-2” value is listed as “*^b”; the “Epitope Binning Heat Map value, CHI3L1 293R3-2” value is reported as 0.1221; the “competitive binding class, CHI3L1 293R3-4” value is on record as “*^a”. For the same molecule, in the test with hCHI3L1/flag-His, the “Epitope Binning Heat Map value, CHI3L1 293R3-4” value came out at 0.3014; the “competitive binding class, CHI3L1 R4-4” value was “*^c”; the “Epitope Binning Heat Map value, CHI3L1 R4-4” value worked out at 1.1089; the “competitive binding class, CHI3L1 R4-54” value is given as “*^c”. Moreover, the “Epitope Binning Heat Map value, CHI3L1 R4-54” value with hCHI3L1/flag-His was found to be 0.4217.
